Source: patent US20250042887A1, “GLYCOGEN SYNTHASE KINASE-3 (GSK3) INHIBITOR COMPOUNDS FOR USE AS ANTIVIRAL AGENTS” (priority 2021, published 2025)
Like-named read-outs stand apart in the source and are kept apart here. Where no end group is shown, it is not given here. [ ]: non-standard residue; d: D form. pS = N[C@@H](COP(=O)(O)O)C(=O)O

Columns and labels:
[1] = target: T1, glycogen synthase kinase-3-beta (Homo sapiens, UniProt P49841); assay: In vitro phosphorylation of nucleocapsid peptides, ADP-Glo, GSK3b; assay type: biochemical; details: for Relative Phosphorylation to No Kinase Control, GSK3b: Mean ± S.Dev. (n = 3), no kinase control = 100; for Relative Phosphorylation to Autophosphorylation Control (set at 100), GSK3b: peptide ~250 μM, 250 μM ATP, 30 min at 30° C., duplicate measurements
T1 construct: GST; purchased SignalChem Go9-10G

[2] = target: cAMP-dependent protein kinase catalytic subunit-alpha (PKACa) (Homo sapiens, UniProt P17612); assay: In vitro phosphorylation of nucleocapsid peptides, ADP-Glo, PKACa; assay type: biochemical; details: peptide ~250 μM, 250 μM ATP, 30 min at 30° C.; duplicate measurements
[3] = target: T2, protein kinase C-alpha (PKC α) (Homo sapiens, UniProt P17252); assay: In vitro phosphorylation of nucleocapsid peptides, ADP-Glo, PKCa; assay type: biochemical; details: for Relative Phosphorylation to No Kinase Control, PKCa: Mean ± S.Dev. (n = 3), no kinase control = 100; for Relative Phosphorylation to Autophosphorylation Control (set at 100), PKCa: peptide ~250 μM, 250 μM ATP, 30 min at 30° C., duplicate measurements
T2 construct: GST; purchased SignalChem P61-18G

[4] = target: T3, casein kinase 2-alpha-1 (CK2a1) (Homo sapiens, UniProt P68400); assay: In vitro phosphorylation of nucleocapsid peptides, ADP-Glo, CK2a1; assay type: biochemical; details: peptide ~250 μM, 250 μM ATP, 30 min at 30° C.; duplicate measurements
T3 construct: GST; purchased SignalChem C70-10G

PKCa + GSK3b = assay: In vitro phosphorylation of nucleocapsid peptides, ADP-Glo, PKCa + GSK3b combined; assay type: biochemical, human; details: Mean ± S.Dev. (n = 3); no kinase control = 100
HCoV-229E = assay: High-content screen of GSK3β-focused library in HCoV-229E infected Huh-7.5.1 cells (intracellular dsRNA); assay type: cell-based, human coronavirus 229E (HCoV-229E); details: Human coronavirus 229E, single dose of 10 μM, Z′ 0.7
SARS-CoV-2 [5] = assay: High-content screen of GSK3β-focused library in SARS-CoV-2 infected Huh-7.5.1 cells (dsRNA or nucleocapsid); assay type: cell-based; details: for inhibition at 10 µM: Severe acute respiratory syndrome coronavirus 2, single dose of 10 μM, Huh-7.5.1 cells; for Activity (SARS-CoV-2): see TABLE A
Huh-7.5.1 cells = details: single dose of 10 μM
Procedure: High content screening methodology and parameters. Monitoring of the total number of cells (based on nuclei staining) and number of virus infected cells (based on dsRNA and Nucleocapsid staining) was performed using the CellInsight CX7™ High Content Screening platform (Thermo Fisher™), as previously described (33042061). Shortly, nuclei are identified and counted using the 350′461 nm wavelength (Hoechst 33342™); cell debris and other particles are deducted based on a size filter tool. A Region of Interest (ROI, or “circle”) is then drawn around each host cell and validated against the bright field image to correspond with host cell membranes. The ROI encompasses the “spots”, where dsRNA (485/521 nm wavelength) and SARS-CoV-2 nucleocapsid (533/588 nm wavelength) are localized. Finally, the software (HCS Studio Cell Analysis Software™, version 4.0) identifies, counts and measures the pixel area and intensity of the spots within each circle. The fluorescent spot area measured within each cell (circle) is then added and quantified for each well. The total circle spot intensity of each well corresponds to the viral load, and is normalized to non-infected cells, and to cells infected with no compound. Nuclei stain (Hoechst 33342™) was used to quantify cell loss (due to cytotoxicity or loss of adherence), and to normalize the changes in viral load resulting from a decrease in cell numbers.

SARS-CoV-2 [6] = tested on: SARS-CoV-2; parameters: effect on N protein phosphorylation and SARS-CoV-2 replication: dose or concentration left out as unconfirmed; details: reference [7], cited from earlier work
[7] = target: cyclin-dependent kinase 2/cyclin A2 (CDK2/A2) (Homo sapiens, UniProt P24941); assay: In vitro phosphorylation of nucleocapsid peptides, ADP-Glo, CDK2/cyclin A2; assay type: biochemical; details: peptide ~250 μM, 250 μM ATP, 30 min at 30° C.; duplicate measurements
casein kinase 1-delta = target: T4, casein kinase 1-delta (Homo sapiens, UniProt P48730); assay: In vitro phosphorylation of nucleocapsid peptides, ADP-Glo, CK1d; assay type: biochemical; details: peptide ~250 μM, 250 μM ATP, 30 min at 30° C.; duplicate measurements
T4 construct: GST; purchased SignalChem C65-10G

[8] = target: T5, casein kinase 1-gamma-1 (CK1γ1) (Homo sapiens, UniProt Q9HCP0); assay: In vitro phosphorylation of nucleocapsid peptides, ADP-Glo, CK1g1; assay type: biochemical; details: peptide ~250 μM, 250 μM ATP, 30 min at 30° C.; duplicate measurements
T5 construct: GST; purchased SignalChem C68-11G

[9] = target: T6, extracellularly-regulated kinase-1 (ERK1) (Homo sapiens, UniProt P27361); assay: In vitro phosphorylation of nucleocapsid peptides, ADP-Glo, ERK1; assay type: biochemical; details: peptide ~250 μM, 250 μM ATP, 30 min at 30° C.; duplicate measurements
T6 construct: GST; purchased SignalChem M29-10G

[10] = Z′ 0.3, read-out: SARS-CoV-2 inhibition (% dsRNA)
[11] = average of screens 1 and 2, read-out: Average SARS-CoV-2 Nucleocapsid inhibition
[12] = screen 1, Z′ 0.7, read-out: SARS-CoV-2 inhibition (% Nucleocapsid) 1
[13] = screen 2, Z′ 0.5, read-out: SARS-CoV-2 inhibition (% Nucleocapsid) 2

T1 sequence (P49841 whole entry): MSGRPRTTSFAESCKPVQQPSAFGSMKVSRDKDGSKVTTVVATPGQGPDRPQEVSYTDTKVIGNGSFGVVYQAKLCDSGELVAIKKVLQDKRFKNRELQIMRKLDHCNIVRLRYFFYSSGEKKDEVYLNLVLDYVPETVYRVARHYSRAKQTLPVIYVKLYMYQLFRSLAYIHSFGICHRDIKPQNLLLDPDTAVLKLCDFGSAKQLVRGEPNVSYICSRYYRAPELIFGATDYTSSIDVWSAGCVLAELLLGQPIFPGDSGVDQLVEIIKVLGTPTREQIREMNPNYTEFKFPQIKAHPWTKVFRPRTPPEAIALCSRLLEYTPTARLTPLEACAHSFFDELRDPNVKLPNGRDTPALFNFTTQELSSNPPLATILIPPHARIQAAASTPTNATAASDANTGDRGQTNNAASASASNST
T3 sequence (P68400 whole entry): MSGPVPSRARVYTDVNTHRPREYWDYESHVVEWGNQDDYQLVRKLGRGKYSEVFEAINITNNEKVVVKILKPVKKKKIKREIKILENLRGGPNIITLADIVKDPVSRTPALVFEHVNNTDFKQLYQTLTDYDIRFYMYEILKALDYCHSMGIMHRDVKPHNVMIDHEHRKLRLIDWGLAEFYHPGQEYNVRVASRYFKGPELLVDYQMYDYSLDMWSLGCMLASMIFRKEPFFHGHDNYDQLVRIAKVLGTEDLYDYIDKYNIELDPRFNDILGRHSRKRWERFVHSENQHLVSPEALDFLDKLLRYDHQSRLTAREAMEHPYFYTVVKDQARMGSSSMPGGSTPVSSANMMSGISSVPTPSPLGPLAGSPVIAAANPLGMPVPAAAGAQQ
T6 sequence (P27361 whole entry): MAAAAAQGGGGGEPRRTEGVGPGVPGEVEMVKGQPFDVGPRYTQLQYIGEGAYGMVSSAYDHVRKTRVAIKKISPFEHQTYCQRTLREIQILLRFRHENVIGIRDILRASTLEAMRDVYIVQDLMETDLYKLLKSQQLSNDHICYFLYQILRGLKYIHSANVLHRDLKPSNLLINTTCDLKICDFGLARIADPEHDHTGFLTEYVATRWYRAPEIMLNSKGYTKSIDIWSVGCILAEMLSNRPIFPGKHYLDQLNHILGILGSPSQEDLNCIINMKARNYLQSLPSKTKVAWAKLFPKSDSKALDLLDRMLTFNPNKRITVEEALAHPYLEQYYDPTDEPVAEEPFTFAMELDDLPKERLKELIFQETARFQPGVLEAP
T4 sequence (P48730 whole entry): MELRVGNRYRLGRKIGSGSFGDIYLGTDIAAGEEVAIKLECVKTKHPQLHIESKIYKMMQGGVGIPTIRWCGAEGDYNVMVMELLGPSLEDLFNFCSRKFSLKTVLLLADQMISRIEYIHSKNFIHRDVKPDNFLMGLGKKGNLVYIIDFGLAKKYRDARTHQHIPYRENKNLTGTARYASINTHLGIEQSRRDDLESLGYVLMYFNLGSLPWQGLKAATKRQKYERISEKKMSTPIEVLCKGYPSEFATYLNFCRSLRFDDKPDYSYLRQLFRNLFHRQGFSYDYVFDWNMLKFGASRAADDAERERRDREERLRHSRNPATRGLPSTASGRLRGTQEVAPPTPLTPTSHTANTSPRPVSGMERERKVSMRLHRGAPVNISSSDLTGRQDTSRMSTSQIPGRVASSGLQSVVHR
T5 sequence (Q9HCP0 whole entry): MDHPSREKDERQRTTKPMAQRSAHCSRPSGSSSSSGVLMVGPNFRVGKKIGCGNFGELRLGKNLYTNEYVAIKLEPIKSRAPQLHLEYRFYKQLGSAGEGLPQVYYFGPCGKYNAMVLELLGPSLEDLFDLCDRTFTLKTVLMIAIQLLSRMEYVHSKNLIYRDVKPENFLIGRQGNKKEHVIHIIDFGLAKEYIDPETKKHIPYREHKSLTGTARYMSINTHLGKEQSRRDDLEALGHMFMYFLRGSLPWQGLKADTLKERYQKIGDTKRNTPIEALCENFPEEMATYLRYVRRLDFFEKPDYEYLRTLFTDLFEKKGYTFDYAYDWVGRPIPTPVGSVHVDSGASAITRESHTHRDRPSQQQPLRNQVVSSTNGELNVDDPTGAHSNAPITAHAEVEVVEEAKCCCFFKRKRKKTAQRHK

For “RGGSQASSRSS(pS)RS (RGGSQASSRSS[pS]RS) [SCV2-N [177-190]-pS188, synthetic peptide modeled after SARS-CoV-2 nucleocapsid protein phosphorylation sites, pre-phosphorylated at S188]”, the “Relative Phosphorylation to No Kinase Control, GSK3b” value [1] was 24,585 ± 645, the “Relative Phosphorylation to Autophosphorylation Control (set at 100), GSK3b” value (“Relative Phosphorylation … (set at 100), GSK3b” for short) [1] was 1209 and the “Relative Phosphorylation to Autophosphorylation Control (set at 100), PKACa” value (shortened to “Relative Phosphorylation … PKACa”) [2] was 128. The “Relative Phosphorylation to No Kinase Control, PKCa” value [3] was 3861 ± 71 and the “Relative Phosphorylation to Autophosphorylation Control (set at 100), PKCa” value (“Relative Phosphorylation … (set at 100), PKCa” below) [3] was 389.
In the case of “SQASSRSSSRSRNS [SCV2-N [180-193], synthetic peptide modeled after SARS-CoV-2 nucleocapsid protein phosphorylation sites]”, the “Relative Phosphorylation to Autophosphorylation Control (set at 100), CK2a1” value [4] was 101, the “Relative Phosphorylation to No Kinase Control, GSK3b” value [1] was 2407 ± 23 and the “Relative Phosphorylation … (set at 100), GSK3b” value [1] was 102. For the same compound, the “Relative Phosphorylation … PKACa” value [2] was 123, the “Relative Phosphorylation to No Kinase Control, PKCa” value [3] was 16,366 ± 261 and the “Relative Phosphorylation … (set at 100), PKCa” value [3] was 1278. For the same compound, the “Relative Phosphorylation to No Kinase Control, PKCa + GSK3b” value (PKCa + GSK3b) was 3836 ± 41.
For `COc1ccc(-n2cnc3ccc(-c4nnc(SCc5cccc(C#N)c5)o4)cc32)cc1` [Compound P-0780332], the inhibition at 10 µM (HCoV-229E) was 0%, the inhibition at 10 µM (SARS-CoV-2 [5]; [10]) was 0.6% and the inhibition at 10 µM (SARS-CoV-2 [5]; [11]) was 0%. For the same compound, the inhibition at 10 µM (SARS-CoV-2 [5]; [12]) was 0%, the inhibition at 10 µM (SARS-CoV-2 [5]; [13]) was 0% and the “Activity (SARS-CoV-2)” value (SARS-CoV-2 [5]) was “inactive (see TABLE A)”. For the same compound, the “Average cell loss (%)” value (Huh-7.5.1 cells) was 9.2%.
Compound `O=C(NCc1ccccn1)Nc1cc(N2CC(CCc3ccccc3)CC2=O)ccn1` (stereo not drawn) [Compound P-4423632] has an inhibition at 10 µM (HCoV-229E) of 43.2%, an inhibition at 10 µM (SARS-CoV-2 [5]; [10]) of 100% and an inhibition at 10 µM (SARS-CoV-2 [5]; [11]) of 95.2%. For the same compound, the inhibition at 10 µM (SARS-CoV-2 [5]; [12]) was 98%, the inhibition at 10 µM (SARS-CoV-2 [5]; [13]) was 92.4% and the “Activity (SARS-CoV-2)” value (SARS-CoV-2 [5]) was “active (see TABLE A)”. For the same compound, the “Average cell loss (%)” value (Huh-7.5.1 cells) was 12.0%.
In the case of “RGGSQASSRSSSRS [SCV2-N [177-190], synthetic peptide modeled after SARS-CoV-2 nucleocapsid protein phosphorylation sites]”, the “Relative Phosphorylation to No Kinase Control, GSK3b” value [1] was 2161 ± 63, the “Relative Phosphorylation … (set at 100), GSK3b” value [1] was 107 and the “Relative Phosphorylation … PKACa” value [2] was 162. For the same compound, the “Relative Phosphorylation to No Kinase Control, PKCa” value [3] was 13,714 ± 502, the “Relative Phosphorylation … (set at 100), PKCa” value [3] was 1320 and the “Relative Phosphorylation to No Kinase Control, PKCa + GSK3b” value (PKCa + GSK3b) was 3572 ± 22.
In the case of `Cn1cc(C2=C(c3cn(C4CCN(Cc5ccccn5)CC4)c4ccccc34)C(=O)NC2=O)c2ccccc21` [Enzastaurin], the effect on infection (SARS-CoV-2 [6]; A549-ACE2 human lung cancer-derived cell line and Vero E6 cells) is listed as “reduced infection” and the “effect on N protein phosphorylation and SARS-CoV-2 replication” value (SARS-CoV-2 [6]) is listed as “blocked N protein phosphorylation and SARS-CoV-2 replication”.
For “RNSTPGSSRGT(pS)PAR (RNSTPGSSRGT[pS]PAR) [SCV2-N [195-209]-pS206, synthetic peptide modeled after SARS-CoV-2 nucleocapsid protein phosphorylation sites, pre-phosphorylated at S206]”, the “Relative Phosphorylation to Autophosphorylation Control (set at 100), CDK2 + Cyclin A2” value [7] was 100, the “Relative Phosphorylation to Autophosphorylation Control (set at 100), CK1d” value (casein kinase 1-delta) was 105 and the “Relative Phosphorylation to Autophosphorylation Control (set at 100), CK1g1” value [8] was 105. For the same compound, the “Relative Phosphorylation to Autophosphorylation Control (set at 100), ERK1” value [9] was 100, the “Relative Phosphorylation to No Kinase Control, GSK3b” value [1] was 24,082 ± 381 and the “Relative Phosphorylation … (set at 100), GSK3b” value [1] was 1068. The “Relative Phosphorylation … PKACa” value [2] was 205 and the “Relative Phosphorylation to No Kinase Control, PKCa” value [3] was 1531 ± 47.
